Test [1] concerns the target mouse GUCY2C-rCD4 fusion protein (Mus musculus (house mouse); Rattus norvegicus). Briefly: ELISA (DELFIA), antigen on streptavidin plate, scFv culture solution, Eu-anti-tag Ab.
The target of test [2] is monkey GUCY2C-rCD4 fusion protein (Macaca fascicularis (crab-eating macaque); Rattus norvegicus). Described as above.

Residue numbers refer to the chain shown, from its start.

monkey GUCY2C-rCD4 fusion protein (Macaca fascicularis (crab-eating macaque); Rattus norvegicus), sequence (chain, as listed by the source limits assumed): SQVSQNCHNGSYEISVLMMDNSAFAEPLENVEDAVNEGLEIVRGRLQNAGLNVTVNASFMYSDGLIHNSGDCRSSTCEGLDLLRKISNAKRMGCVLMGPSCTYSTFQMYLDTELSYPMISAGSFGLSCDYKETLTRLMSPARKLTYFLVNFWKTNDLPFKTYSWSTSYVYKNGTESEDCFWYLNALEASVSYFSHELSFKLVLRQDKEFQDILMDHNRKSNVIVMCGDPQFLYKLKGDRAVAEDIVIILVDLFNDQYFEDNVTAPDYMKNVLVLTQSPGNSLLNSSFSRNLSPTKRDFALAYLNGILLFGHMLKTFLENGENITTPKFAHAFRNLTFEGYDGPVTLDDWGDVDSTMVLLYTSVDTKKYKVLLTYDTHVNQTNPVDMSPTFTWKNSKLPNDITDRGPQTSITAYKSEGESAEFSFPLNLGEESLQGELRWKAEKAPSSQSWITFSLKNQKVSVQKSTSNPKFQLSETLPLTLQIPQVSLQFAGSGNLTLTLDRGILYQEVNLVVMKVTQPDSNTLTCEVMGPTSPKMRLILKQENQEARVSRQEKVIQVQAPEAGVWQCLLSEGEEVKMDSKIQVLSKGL

B1: scFv A01 (scFv)
scFv: QVQLVQSGAEVKKPGASVKVSCKASGYTFTSYYMHWVRQAPGQGLEWMGIINPSGGSTSYAQEFQGRVTMTRDTSTSTVYMELSSLRSEDTAVYYCARDGQWLQFDYWGQGTLVTVSSGGGGSGGGGSGGGASDIVMTQSPLSLPVTLGQPASISCRSSQSLLKKSDGNTYLSWYHQRPGQSPRRLIYKVSNRDSGVPDRFSGSGSDTDFTLKISRVETEDVGIYYCMQGSHWPPTFGQGTKVEIK
In test [1], B1 gave a Binding ELISA signal of 352.

B2: scFv A04 (scFv)
scFv: EVQLVQPGAEVKKPGSSVKVSCKASGGTLSSYAISWVRQAPGQGLEWMGRIIPILGITNYAQKFQGRVTITADKSTSTAYMELSSLRSEDTAVYFCARDQRPASMDVWGQGTLVTVSSGGGGSGGGGSGGGASQSELTQPASVSGSPGQSITISCTGTSSDVGGYIYVSWYQQHPGKVPKLMIHDVSHRPSGVSNRFSGSRSGNTASLTISGLQAEDEADYFCSSYTSSNNYYFGTGTKVTVL
B2: the values for the Binding ELISA signal in test [1] and in test [2] were 66 and 73, respectively.

B3: scFv A02 (scFv)
scFv: B2 scFv with T227A, S228G, Y233V
For B3, the Binding ELISA signal in test [1] came to 74; in test [2], 60.

B4: scFv A12 (scFv)
scFv: B2 scFv with Y233V
As to B4, the Binding ELISA signal was 53 in test [1] and 56 in test [2].

B5: scFv A03 (scFv)
scFv: QVQLVQSGAEVKKPGSSVKVSCKASGGTFSSYTISWVRQAPGQELEWMGRIIPILGIANYAQKFQGRVTITADKSTSTAYMELSSLRSEDTAVYYCARDYSSSWNSMDVWGQGTLVTVSSGGGGSGGGGSGGGASQSGLTQPPSASGSPGQSVTISCTGTSSDIGYYHYVSWYQQHPGKAPKLMIYEDSKRPSGISNRFSGSKSGTTASLTVSGLQAEDEAHYYCSSFTSRSTWVFGGGTQLTVL
Turning to B5, in test [1], the Binding ELISA signal was found to be 77.

B6: scFv B07 (scFv)
scFv: EVQLVQSGAEVKRPGSSVKVSCKASGYTFTSYYMHWVRQAPGQGLEWMGIINPSGGSTSYAQKFQGRVTMTRDTSTSTVYMELSSLRSEDTAVYYCAAGTYSSGWTIDYWGQGTTVTVSSGGGGSGGGGSGGGASDIVMTQSPLSLPVTLGQPASISCRSSQSLVYTDGNTYLNWFQQRPGQSPRRLIYKVSNRDSGVPDRFSGSGSGTDFTLKISRVEAEDVGIYYCMHSKQWPPTFGGGTKVEIK
In test [1], B6 displayed a Binding ELISA signal of 66.

B7: scFv B12 (scFv)
scFv: QVQLVESGGGLVKPGGSLRLSCAASGFTFSSYSMNWVRQAPGKGLEWVSVIYSGGSTHYADSVKGRFTISRHNSKNTLYLQMNSLRAEDTAVYYCARGAGTLNAFDIWGQGTTVTVSSGGGGSGGGGSGGGASQSGLTQPPSTSGSPGQSVTISCTGTSSDVGAYSYVSWYQQHPGKAPKLLIYAVTKRPSGVPDRFSGSKSGNTASLTVSGLQDEDEADYYCSSFAGGSTLVFGGGTKLTVL
As for B7, the Binding ELISA signal in test [1] was 48.

B8: scFv C02 (scFv)
scFv: QVQLVQSGAEVKKPGSSVKVSCKASGGTFSSYTISWVRQAPGQGLEWMGRIIPILGIANYAQKFQGRVTITADKSTSTAYMELSSLRSEDTAVYYCARDRSYNWLDPWGRGTLVTVSSGGGGSGGGGSGGGASQSALTQPVSVSGSPGQSITISCTGTISDVGDYNYVSWYQQHPGKAPKLMIYDVNNRPSGVSNRFSGSKSGNTASLTISGLQAEDEADYYCSSYTSSSTLVFGGGTKLTVL
Molecule B8 yielded a Binding ELISA signal in test [1] of 61.

B9: scFv A05 (scFv)
scFv: QVQLVQSGAEVKKPGSSVKVSCKASGGTFSSYTITWVRQAPGQGLEWMGRIIPVLGIANYAQKFQGRVTITADKSTSTAYMELSSLRSEDTAVYYCARDYSSSWNSMDVWGQGTLVTVSSGGGGSGGGGSGGGASQSGLTQPRSVSGSPGQSVTISCTGTSSDVGGYNYVSWYQQHPGKAPKLMIYDVSKRPSGVPDRFSGSKSGNTASLTVSGLHAEDEADYYCSSYAGSNNFVFGTGTKVTVL
On to B9, for which the Binding ELISA signal in test [1] stood at 62; in test [2], 89.

B10: scFv A06 (scFv)
scFv: B9 scFv with S30G, T35S, V54I, G166A, D187E, G201A, H216Q, F234W, T238G, V242L
The molecule B10 gave a Binding ELISA signal in test [1] of 80.

B11: scFv B01 (scFv)
scFv: EVQLVQPGAEVKKPGSSVKVSCKASGGTLSSYAISWVRQAPGQGLEWMGRIIPILGITNYAQKFQGRVTITADKSTSTAYMELSSLRSEDTAVYFCARDQRPASMDVWGQGTLVTVSSGGGGSGGGGSGGGASQSGLTQPASVSGSPGQSITISCTGTSSDVGGYNYVSWYQQHPGKAPKLMIYEVSNRPSGVSNRFSGSKSGNTASLTISGLQAEDEADYYCSTVTSLSTYVFGTGTKLTVL
As for B11, the Binding ELISA signal in test [1] stood at 70.

The values are drawn from patent US20240115706A1.
